Data on 1 protein can be found in patent US20180333482A1 (LOYOLA UNIVERSITY OF CHICAGO, published 2018).

The series concerns the molecule itself. In words: dynamic light scattering, self-association.

B1: recombinant wild-type MHV nsp15 protein, SUMO-fusion protein purified from E. coli (enzyme)
chain: SLENVVYNLVNAGHFDGRAGELPCAVIGEKVIAKIQNEDVVVFKNNTPFPTNVAVELFAKRSIRPHPELKLFRNLNIDVCWSHVLWDYAKDSVFCSSTYKVCKYTDLQCIESLNVLFDGRDNGALEAFKKCRNGVYINTTKIKSLSMIKGPQRADLNGVVVEKVGDSDVEFWFAVRKDGDDVIFSRTGSLEPSHYRSPQGNPGGNRVGDLSGNEALARGTIFTQSRLLSSFTPRSEMEKDFMDLDDDVFIAKYSLQDYAFEHVVYGSFNQKIIGGLHLLIGLARRQQKSNLVIQEFVTYDSSIHSYFITDENSGSSKSVCTVIDLLLDDFVDIVKSLNLKCVSKVVNVNVDFKDFQFMLWCNEEKVMTFYPRLQ
notes: domain: nsp15; also called WT nsp15; WT MHV Nsp15; not shown: His-SUMO tag from the pET-His-SUMO vector
For B1, the binding result is “binds”.
